Results taken from the supplement of paper PMC10567573.

B1: IQUB (parent)
chain: KIREKEEWIKLDYHRRHNPKTNED

Variants of: B1
Assay: protein stability index of a GFP-peptide fusion (GPS, HEK-293T) (PSI 1-6); higher = more stable
Conditions: c terminus: a fixed tail appended
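Also: lentivirally expressed fusions sorted by FACS into six bins by GFP to DsRed ratio, PSI derived from sequencing read proportions per bin multiplied by bin number.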

Protein stability index of substitutions, site by site:
W8: H 4.99, K 5.19, C 4.93, G 5.54, S 5.41, N 5.03, D 5.13, V 5.07, F 4.24, P 5.25, M 5.1, I 4.24, R 4.91, Y 5.13, T 5.19, Q 5.58, A 5.18, L 4.94, E 4.69
K1: D 4.99, P 4.99, F 2.67, Y 2.98, T 4.87, G 5.15, V 4.52, N 5.44, L 4.15, M 4.14, I 4.02, H 4.62, A 4.79, S 4.62, R 4.68, Q 4.96, C 4.07, W 3.75, E 4.62
R16: V 3.62, K 3.6, G 4.74, Q 5.08, C 4.52, D 3.61, N 4.91, T 4.94, I 4.38, F 3.7, P 4.75, Y 4.31, E 5.2, M 4.63, A 4.54, S 5.12, W 4.22, L 3.86, H 4.4
D12: K 4.54, H 4.41, Y 3.62, I 3.28, S 3.59, V 3.65, N 3.92, R 4.21, L 3.79, P 4.41, C 3.93, W 3.79, F 4.01, E 4.27, Q 4.55, A 4.07, T 3.79, M 3.7, G 4.51
E4: Y 4.03, H 4.32, T 4, C 3.71, Q 3.82, G 3.85, K 3.86, L 3.81, I 4, R 3.99, D 4.48, P 4.02, W 3.75, M 4.06, V 3.32, A 4.38, F 3.84, S 3.95, N 4.67
L11: I 3.78, M 4.71, C 4.52, Q 5.37, G 4.64, S 5.23, D 4.93, P 4.78, F 4.33, K 4.71, W 4.13, A 4.77, V 4.55, Y 4.81, N 5.15, T 5.2, E 4.32, H 4.66, R 5.29
R15: C 3.89, D 5.33, N 4.39, A 5.05, V 4.97, T 4.76, W 4.16, G 4.83, I 4.29, P 4.17, H 4.36, K 4.64, M 4.3, Q 3.98, Y 4.08, L 4.49, F 4.23, E 4.46, S 5.22
H17: Y 3.99, M 4.21, K 4.23, A 4.71, S 4.83, P 5.17, I 4.5, E 4.11, G 4.97, C 4.16, N 4.16, D 5.08, V 4.87, L 4.67, Q 5.08, T 4.57, R 4.51, F 4.41
H14: A 4.8, L 4.1, C 4.46, V 4.24, K 3.87, F 4.34, N 4.89, D 5.35, Q 5.02, P 4.51, R 4.58, I 4.58, S 4.61, T 4.5, W 3.73, Y 4.41, E 3.72, G 4.88
K10: W 3.17, N 4.48, Y 4.31, E 5.3, A 4.65, M 4.67, H 4.56, P 5.26, T 4.97, I 4.16, Q 4.74, L 4.04, C 4.15, G 4.9, D 4.99, F 4.68, S 4.68, R 4.92, V 4.2
I2: W 4.26, G 5.25, V 4.67, M 4.72, H 4.91, L 4.74, Q 4.14, S 5.09, A 4.88, T 4.69, R 4.58, F 4.19, K 4.8, Y 4.2, C 4.62, E 5.32, P 3.84, N 5, D 5.17
Y13: L 4.8, W 4.18, T 4.49, N 5.41, F 4.51, D 5.04, Q 5.04, C 4.33, E 5.18, R 5.28, K 5.3, A 4.36, I 3.95, H 4.87, S 5.11, G 4.99, P 4.51, M 4.76, V 4.64
E6: L 2.7, Q 4.47, F 3.56, Y 2.88, P 3.58, A 3.32, S 4.03, T 4.41, G 3.96, K 3.98, M 3.69, R 4.66, D 4.31, W 2.61, C 4.35, V 3.63, N 4.52, H 3.98
K5: F 3.67, A 3.99, M 3.04, H 4.51, G 4.6, V 3.4, Q 4.93, R 4.64, T 4.21, D 4.51, W 3.74, N 4.7, L 3.13, E 4.45, Y 3.92, C 4.09, P 4.63, I 2.39, S 4.14
N18: Q 3.97, R 4.31, D 4.86, P 4.89, K 4.46, M 4.42, I 4.19, H 4.27, T 4.27, C 3.99, E 4.48, L 3.79, G 4.93, S 4.91, F 4, A 4.32
E7: D 4.48, W 3.46, K 4.03, I 3.36, G 3.8, F 3.34, M 3.27, A 4.74, N 4.45, V 3.99, P 3.6, H 4.34, C 4.61, T 4.37, S 4.46, Y 3.31, L 2.68, Q 4.19, R 3.51
I9: D 5.22, P 4.94, K 5.13, C 4.12, T 5.1, F 3.96, H 4.45, S 4.62, E 5.25, M 4.75, L 4.66, Y 4.73, V 4.86, G 5.35, A 5.24, Q 5.24, N 5.07
R3: M 4.02, Q 4.6, W 4.21, V 4.52, N 4.72, A 5.05, F 4.3, Y 4.29, L 4.22, S 4.6, P 4.97, E 5.08, G 5.16, C 4.8, K 4.67, H 4.67, I 4.35, D 5.34, T 4.61
